Literature values in paper PMC3131494.

Biological target: eNOS (UniProt P29474)
UniProt P29474, sequence (P29474 2-1203): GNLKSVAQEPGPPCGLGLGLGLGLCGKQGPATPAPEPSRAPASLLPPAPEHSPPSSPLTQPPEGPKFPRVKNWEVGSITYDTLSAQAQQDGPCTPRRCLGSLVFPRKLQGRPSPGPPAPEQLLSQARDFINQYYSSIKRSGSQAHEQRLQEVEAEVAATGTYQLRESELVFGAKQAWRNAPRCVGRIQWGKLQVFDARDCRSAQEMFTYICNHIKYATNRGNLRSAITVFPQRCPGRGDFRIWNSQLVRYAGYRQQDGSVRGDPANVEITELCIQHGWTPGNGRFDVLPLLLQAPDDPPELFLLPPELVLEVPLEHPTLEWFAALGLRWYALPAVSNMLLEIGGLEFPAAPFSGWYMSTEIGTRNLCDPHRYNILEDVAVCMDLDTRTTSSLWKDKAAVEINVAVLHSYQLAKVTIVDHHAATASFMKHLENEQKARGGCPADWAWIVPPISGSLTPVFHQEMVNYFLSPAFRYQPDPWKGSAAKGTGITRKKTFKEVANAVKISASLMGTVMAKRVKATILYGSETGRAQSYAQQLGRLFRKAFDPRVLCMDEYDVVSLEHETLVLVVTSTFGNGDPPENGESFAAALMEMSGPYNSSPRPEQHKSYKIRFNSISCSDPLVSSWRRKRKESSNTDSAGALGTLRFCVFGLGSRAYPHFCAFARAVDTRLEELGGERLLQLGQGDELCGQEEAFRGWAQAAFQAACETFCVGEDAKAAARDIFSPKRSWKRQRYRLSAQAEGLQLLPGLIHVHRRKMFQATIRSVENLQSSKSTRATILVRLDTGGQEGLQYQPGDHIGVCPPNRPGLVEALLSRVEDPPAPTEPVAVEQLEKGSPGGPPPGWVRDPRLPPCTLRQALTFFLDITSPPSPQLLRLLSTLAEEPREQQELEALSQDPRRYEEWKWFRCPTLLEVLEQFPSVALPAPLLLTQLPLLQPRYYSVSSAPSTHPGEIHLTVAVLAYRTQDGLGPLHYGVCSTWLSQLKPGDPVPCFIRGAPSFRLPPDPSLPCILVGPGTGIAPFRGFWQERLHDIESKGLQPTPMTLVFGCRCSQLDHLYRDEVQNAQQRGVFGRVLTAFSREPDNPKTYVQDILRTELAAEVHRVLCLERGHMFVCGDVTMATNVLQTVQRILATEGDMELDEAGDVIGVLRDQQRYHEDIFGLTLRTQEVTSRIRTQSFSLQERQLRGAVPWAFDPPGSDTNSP

Substance: dynamin (from UniProt P50570)
- Kd: 30 nM
